Target: pICln (UniProt P54105 1-237)
Assay: pull-down

B1: GST-PRMT5reg (domain or fragment)
chain: MAAMAVGGAGGSRVSSGRDLNCVPEIADTLGAVAKQGFDFLCMPVFHPRFKREFIQEPAKNRPGPQTRSDLLLSGRDWNTLIVGKLSPWIRPDSKVEKIRRNSEAAMLQELNFGAYLGLPAFLLPLNQEDNTNLARVLTNHIHTGHHSSMFWMRVPLVAPEDLRDDIIENAPTTHTEEYSGEEKTWMWWHNFRTLCDYSKRIAVALEIGADLPSNHVIDRWLGEPIKAAILPTSIFLTNKKGFPVLSKMHQRLIFRLLKLEVQFIITGTNHHSEKEFCSYLQYLEYLSQN
B1: binds.

Reference: publication PMC2755859 (The Journal of Biological Chemistry, 2009)
